Results taken from patent publication US20240041978A1, “LA PROTEIN AS A NOVEL REGULATOR OF OSTEOCLASTOGENESIS” (The U.S.A., as Represented by the Secretary, Department of …, priority 2021, published 2024).
“Also recorded” adds a separate entry of the source. Peptide text beside a SMILES is read from it. * marks the point of attachment. Cbz = O=C(OCc1ccccc1)*; CH2F = FC*

T1: Anx A5 on PS containing liposomes (Homo sapiens, UniProt P08758)
T1 sequence (P08758 1-320): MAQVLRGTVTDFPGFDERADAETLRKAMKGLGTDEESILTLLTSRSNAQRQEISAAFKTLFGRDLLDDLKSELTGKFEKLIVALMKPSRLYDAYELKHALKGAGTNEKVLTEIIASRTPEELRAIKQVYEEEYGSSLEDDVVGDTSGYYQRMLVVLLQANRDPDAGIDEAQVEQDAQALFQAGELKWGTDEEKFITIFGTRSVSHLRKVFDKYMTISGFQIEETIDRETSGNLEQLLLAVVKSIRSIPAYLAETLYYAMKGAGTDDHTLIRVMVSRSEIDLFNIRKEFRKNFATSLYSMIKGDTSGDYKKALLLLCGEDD

B1: La 1-408: recombinant full-length human La protein, N-terminal 6×his tag (protein, listed as Homo sapiens)
chain: MAENGDNEKMAALEAKICHQIEYYFGDFNLPRDKFLKEQIKLDEGWVPLEIMIKFNRLNRLTTDFNVIVEALSKSKAELMEISEDKTKIRRSPSKPLPEVTDEYKNDVKNRSVYIKGFPTDATLDDIKEWLEDKGQVLNIQMRRTLHKAFKGSIFVVFDSIESAKKFVETPGQKYKETDLLILFKDDYFAKKNEERKQNKVEAKLRAKQEQEAKQKLEEDAEMKSLEEKIGCLLKFSGDLDDQTCREDLHILFSNHGEIKWIDFVRGAKEGIILFKEKAKEALGKAKDANNGNLQLRNKEVTWEVLEGEVEKEALKKIIEDQQESLNKWKSKGRRFKGKGKGNKAAQPGSGKGKVQFQGKKTKFASDDEHDEHDENGATGPVKRAREETDKEEPASKQQKTENGAGDQ
modifications: N-terminal 6xHis tag
notes: recombinant full-length human La protein, N-terminal 6×his tag
B2: heat-inactivated La 1-408: recombinant heat-inactivated La 1-408 (protein, UniProt P05455 1-408, looked up)
chain: B1 chain
modifications: full-length heat-inactivated
B3: La 188-375: recombinant amino acids 188-375 of human La (protein, listed as Homo sapiens)
chain: YFAKKNEERKQNKVEAKLRAKQEQEAKQKLEEDAEMKSLEEKIGCLLKFSGDLDDQTCREDLHILFSNHGEIKWIDFVRGAKEGIILFKEKAKEALGKAKDANNGNLQLRNKEVTWEVLEGEVEKEALKKIIEDQQESLNKWKSKGRRFKGKGKGNKAAQPGSGKGKVQFQGKKTKFASDDEHDEHDE
B4: La 1-187: recombinant N-terminal half of La 1-375 (protein, UniProt P05455 1-187, looked up, fragment)
chain: MAENGDNEKMAALEAKICHQIEYYFGDFNLPRDKFLKEQIKLDEGWVPLEIMIKFNRLNRLTTDFNVIVEALSKSKAELMEISEDKTKIRRSPSKPLPEVTDEYKNDVKNRSVYIKGFPTDATLDDIKEWLEDKGQVLNIQMRRTLHKAFKGSIFVVFDSIESAKKFVETPGQKYKETDLLILFKDD

Legend:
[1] = system: human monocyte-derived osteoclasts; assay: Osteoclast fusion assay (number of fusion events, fluorescence microscopy); assay type: cell-based; details: for osteoclast multinucleation / fusion: screen of La 188-375 peptide library, control no addition; for formation of multinucleated syncytia (osteoclast fusion): recombinant protein ~40 nM added end of day 2 post-RANKL, overnight
Method: Osteoclasts: Elutriated monocytes from healthy donors were obtained. Cells were plated at 2.9×10^5 per cm^2 in 35 mm dishes with polymer coverslip bottoms (Ibidi #81156) for imaging or 35 mm or 10 cm dishes for biochemical experiments in complete media [α-MEM supplemented with 10% Fetal Bovine Serum (FBS) and penicillin-streptomycin-L-glutamine (Gibco Invitrogene #12571063; #26140079 and #10378016, respectively)]. Monocytes were differentiated to M2 macrophages in the presence of 100 ng/ml M-CSF for 6 days and then differentiated with 100 ng/ml M-CSF and 100 ng/ml RANKL for 3 days unless indicated otherwise. RAW 264.7 cells (ATCC, Manassas, VA, #TIB-71) were maintained in DMEM supplemented with 10% FBS to a maximum of 8 passages. RAW 264.7 cells were differentiated to osteoclasts in the presence of 100 ng/ml murine RANKL for 5 days. To separate unfused mononucleated and fused, multinucleated RAW 264.7 cells into separate fractions, advantage was taken of the much stronger adherence of multinucleated cells to culture dish plastic. After washing in PBS, mixed RAW cultures (following RANKL differentiation) were left in Ca^2+ and Mg^2+ free PBS for 10 minutes at room temperature. Culture dishes were then tapped on the lab bench and a large portion of unfused, mononucleated RAW cells were released, and these released cells were collected via centrifugation. This process was repeated 2-4 times until dishes were left with a population of primarily fused, multinucleated syncytia. Mononucleated and multinucleated cell fractions were then processed for biochemical or imaging experiments as described below.
Constructs & Recombinant proteins & Transfection: Recombinant La 1-408, 1-375, 1-375 Q20A_Y24A_D33I, 1-187 and 188-375 were amplified with primers designed with overlapping sequences and inserted between NdeI/HindIII in the V78 pET28A E. coli expression vector, adding to each a N-terminal 6×his affinity tag. La 1-408 was expressed as a recombinant protein in E. coli and purified using IMAC columns by SD Biosciences (San Diego, CA). The remaining constructs were transformed into BL2 (DE3) chemically competent E. coli (Thermo Fisher Scientific) and protein expression was induced with IPTG. Cells were lysed with Bugbuster (Sigma), and 6×his-La proteins were affinity purified using HisPur Cobalt Spin columns (Thermo Fisher Scientific), each according to the manufacturer's instructions. Endotoxin contaminates were depleted from affinity purified 6×his-La proteins using Pierce high-capacity endotoxin removal columns (Thermo Fisher Scientific), according to the manufacturer's instructions. Proteins were then sterile filtered, aliquoted and kept at −80 C.
Plasmids were introduced into primary osteoclasts at day 2 of RANKL stimulation via jetPRIME (Polyplus Transfection). FLAG-La 1-408, FLAG-La 1-375 and FLAG-La 1-375 Q20A_Y24A_D33I plasmids were a gift of the Maraia Lab (NICHD). Briefly, SSB (UniProt P05455) was inserted between HindIII and BamHI the pFLAG-CMV2 vector (Sigma). “Uncleavable” La was produced by taking the FLAG-La 1-408 plasmid and making two point mutations at amino acids D371A and D374A, abrogating the caspase cleavage sites at the C-terminal region of the protein (Emory Integrated Genomics Core). siRNA were introduced into primary osteoclasts after 1 day of RANKL stimulation via Lipofectamine RNAiMAX (Thermo Fisher Scientific). Non-targeted (Cat #4390843) and SSB-targeted (Cat #4392420_ID:s13469) siRNA were introduced at a concentration of 5 ng/ml (Silencer Select, Ambion).
Fusion Assays: Osteoclast fusion in the culture systems was evaluated by fluorescence microscopy (Verma et al., J Biol Chem 293, 254-270, doi:10.1074/jbc.M117.809681 (2018)). Briefly, cells were fixed with 4% paraformaldehyde at timepoints of interest, permeabilized with 0.1% TRITON™ X-100 and blocked with 5% FBS. Cells were then stained with phallodin-ALEXAFLURO®488 and Hoechst to label cells' actin cytoskeleton and nuclei, respectively. […]

[2] = system: production of LMW La in human osteoclasts; assay: La cleavage and localization in differentiating osteoclasts with caspase inhibitor (Western blot, immunofluorescence); assay type: cell-based; details: for production of LMW (cleaved) La: Western blot, differentiating human osteoclasts, Day 3-4 post-RANKL
Method: To identify the functional form of La associated with osteoclastogenesis, the relationship was determined between the appearance of LMW La and fusion between osteoclasts. During apoptotic progression human La is cleaved by caspases at […], removing La's NLS (Rutjes et al., Cell Death Differ 6, 976-986, doi:10.1038/sj.cdd.4400571 (1999); Ayukawa et al., J Biol Chem 275, 34465-34470, doi:10.1074/jbc.M003673200 (2000)).
Biochemical approaches: Cells were lysed on ice via pulse sonication and rotated end over end at 4° C. for 45 minutes in the presence of protease inhibitors (cOmplete, Sigma, #118361700010). Steady-state protein levels were evaluated via SDS-PAGE followed by immunoblotting. Bulk proteins were evaluated via SDS-PAGE followed by silver stain (SilverQuest, Thermo Fisher Scientific). Bands of interest were cut from silver stained gels, destained and evaluated by liquid chromatography coupled with tandem mass spectrometry (Proteomics Core, NHLBI). The selective enrichment of cytosolic vs membrane associated protein fractions was carried out using MEM-PER™ Plus Membrane Protein Extraction Kit (Thermo Fisher Scientific, catalogue #89842) according to the manufacturer's instructions.
Fluorescence Microscopy Imaging: In the immunofluorescence experiments the cells were washed with PBS and fixed with warm freshly prepared 4% formaldehyde in PBS (Sigma, F1268) at 37° C. The cells were washed three times with PBS. To permeabilize the cells, they were incubated for 5 min in 0.1% TRITON™ X100 in PBS. The cells were again washed three times with PBS and placed into PBS with 10% FBS, for 10 min at the room temperature to suppress non-specific binding. Then the cells were incubated with primary antibodies for 1 hour in PBS with 10% FBS. […]

[3] = target: T1, Anx A5 on PS containing liposomes; assay: Liposome binding assay
Text: Anx A5 binds to PS containing membranes in a Ca^2+-dependent manner. Recombinant La was introduced alone or along with recombinant Anx A5 to PS containing liposomes and pelleted liposomes by centrifugation to evaluate whether La was enriched with liposomes or in supernatant (FIG. 12C).
Liposome binding assay: Multilamellar liposomes were formed from pure PC or 9:1 (w/w) mixture of PC and PS. Both lipid compositions were supplemented with 0.5 mol % of lissamine rhodamine phosphatidylethanolamine. To prepare liposomes, lipid stock in benzene/methanol (95:5) was frozen in liquid nitrogen and freeze-dried overnight using SPEEDVAC™ (Savant). Dried lipid was resuspended in aqueous buffer (100 mM NaCl, 10 mM Hepes, pH 7.0) at 1 mM total lipid concentration and vortexed. Proteins and CaCl2 were added to the liposomes and the mixtures were incubated on ice for 30 minutes. To pellet, liposomes were centrifugated at 15,000 g for 20 minutes to pellet, based on rhodamine fluorescence ˜95% of liposomes. Centrifugated samples were then fractionated into a top, liposome-depleted fraction and a bottom fraction containing liposomes and liposome-bound proteins. Fractions were then solubilized via addition of Laemmli buffer (Bio Rad) and separated via SDS-PAGE, as described above. Recombinant La and recombinant Anx A5 were detected via their n-terminal 6×His tag via α-6×His antibody (Abcam) and signals for soluble vs liposome bound protein fractions were evaluated via densitometry. Data were presented as a percentage of protein signal bound to liposomes where: […]

Molecule	osteoclast multinucleation / fusion [1]	formation of multinucleated syncytia (osteoclast fusion) [1]	other results
COC(=O)C[C@H](NC(=O)[C@H](C)NC(=O)[C@@H](NC(=O)OCc1ccccc1)C(C)C)C(=O)CF [z-VAD, z-VAD-fmk] (Cbz-Val-Ala-Asp(OMe)-CH2F)	–	–	ability of osteoclasts to form multinucleated syncytia ([1]; pan caspase inhibitor vs vehicle, Day 3 post-RANKL): significantly perturbed; production of LMW (cleaved) La [2]: blocked; production of LMW (cleaved) La ([2]; listed as z-VAD-fmk): block the production of cleaved La; localization of FL La ([2]; α-FL La immunofluorescence, Day 3): premature retention of FL La within the nuclei
AKLRAKQEQEAKQKLEEDAEMKSLEEKIGC (inhibitory La peptide) [Peptide 2]	inhibit fusion and the formation of multinucleated osteoclasts; also recorded: specifically inhibit	–	–
Anx A5: recombinant annexin A5, PS-binding peripheral membrane protein [reference compound]	–	–	pelleting with liposomes ([3]; PS containing liposomes, La with Anx A5, Ca^2+): pelleted with liposomes; pelleting with liposomes ([3]; liposomes lacking PS): neither La nor Anx A5 pelleted
GEVEKEALKKIIEDQQESLNKWKSKGRRFK (inhibitory La peptide) [Peptide 9]	inhibit fusion and the formation of multinucleated osteoclasts; also recorded: specifically inhibit	–	–
B1	–	significantly promoted	–
B2	–	not observed	–
B3	promoted fusion	greatly promoted	–
B4	–	no effect	–
